Results reported in patent EP2830663B1 (Sorrento Therapeutics, Inc., dated 2019).

Target: VEGFR2 on HUVECs (UniProt P35968 20-1356, limits assumed)
Assay: cell-based or functional assay

Chain of VEGFR2 on HUVECs (P35968 20-1356 limits assumed): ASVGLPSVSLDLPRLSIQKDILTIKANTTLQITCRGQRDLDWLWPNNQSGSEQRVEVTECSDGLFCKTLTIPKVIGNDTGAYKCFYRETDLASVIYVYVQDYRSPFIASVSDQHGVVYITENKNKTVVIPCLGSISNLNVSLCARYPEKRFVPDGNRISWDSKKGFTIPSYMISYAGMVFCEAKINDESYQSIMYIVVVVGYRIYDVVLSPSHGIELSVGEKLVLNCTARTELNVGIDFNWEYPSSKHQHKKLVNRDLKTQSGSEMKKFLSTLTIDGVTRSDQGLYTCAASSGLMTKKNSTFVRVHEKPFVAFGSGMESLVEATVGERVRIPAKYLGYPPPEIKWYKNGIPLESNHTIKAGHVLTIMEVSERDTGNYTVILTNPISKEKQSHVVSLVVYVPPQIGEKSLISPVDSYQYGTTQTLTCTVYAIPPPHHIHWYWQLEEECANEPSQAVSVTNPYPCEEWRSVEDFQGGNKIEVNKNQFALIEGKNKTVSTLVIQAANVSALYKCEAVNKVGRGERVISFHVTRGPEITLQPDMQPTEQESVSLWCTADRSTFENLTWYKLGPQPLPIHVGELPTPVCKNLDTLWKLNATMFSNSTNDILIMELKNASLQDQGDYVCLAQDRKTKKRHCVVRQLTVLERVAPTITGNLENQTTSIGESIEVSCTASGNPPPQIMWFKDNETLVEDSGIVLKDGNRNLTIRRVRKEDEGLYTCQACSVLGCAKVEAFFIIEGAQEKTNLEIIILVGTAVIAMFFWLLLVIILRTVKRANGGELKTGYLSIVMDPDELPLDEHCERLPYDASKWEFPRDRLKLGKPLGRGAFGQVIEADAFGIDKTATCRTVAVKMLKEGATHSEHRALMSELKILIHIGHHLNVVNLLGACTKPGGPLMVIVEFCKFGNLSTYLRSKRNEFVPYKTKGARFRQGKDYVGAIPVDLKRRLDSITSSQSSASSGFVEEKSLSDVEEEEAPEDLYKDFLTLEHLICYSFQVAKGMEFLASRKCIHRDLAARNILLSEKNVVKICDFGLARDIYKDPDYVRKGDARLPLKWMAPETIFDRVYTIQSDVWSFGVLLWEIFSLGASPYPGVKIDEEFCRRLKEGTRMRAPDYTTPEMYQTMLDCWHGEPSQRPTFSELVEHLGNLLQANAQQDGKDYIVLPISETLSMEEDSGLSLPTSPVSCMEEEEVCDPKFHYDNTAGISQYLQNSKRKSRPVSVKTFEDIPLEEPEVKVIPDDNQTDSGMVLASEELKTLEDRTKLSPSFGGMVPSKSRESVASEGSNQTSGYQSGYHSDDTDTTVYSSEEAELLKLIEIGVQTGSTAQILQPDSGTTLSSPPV

- IC50, inhibition of VEGF-induced HUVEC cell migration (Figure 14): 0.53 nM
- IC50, inhibition of VEGF-induced HUVEC cell proliferation (Figure 13): 14.9 nM
- IC50, inhibition of VEGF-induced HUVEC migration (modified Boyden chamber): 0.5 nM
- IC50, inhibition of VEGF-induced HUVEC proliferation: 14 nM
- IC50, inhibition of VEGF-induced p44/p42 MAPK (Erk1/2) phosphorylation in HUVECs (ELISA): 0.08 nM
B1: VK-B8 (antibody, V domains shown)
VH: QVQLVQSGAEVKKPGSSVKVSCKAYGGTFGSYGVSWVRRAPGQGLEWMGRLIPIFGTRDYAQKFQGRVTLTADESTNTAYMELSSLRSEDTAVYYCARDGDYYGSGSYYGMDVWGQGTLVTVSS
VL: ETTLTQSPATLSVSPGERATVSCRASQSLGSNLGWFQQKPGQAPRLLIYGASTRATGIPARFSGSGSGTEFTLTISSLQSEDFAVYFCQQYNDWPITFGQGTRLEIK
